As usually defined, the Kd is a measure of binding affinity in units of concentration.

Consider nine molecules from PMC8934651, “Yeast Ssd1 is a non-enzymatic member of the RNase II family with an alternative RNA recognition site”.

Data set [1] deals with T1, Ssd1 ΔN338 (Saccharomyces cerevisiae (S288C/BY4741 …, UniProt P24276 339-1250)).
T1 sequence: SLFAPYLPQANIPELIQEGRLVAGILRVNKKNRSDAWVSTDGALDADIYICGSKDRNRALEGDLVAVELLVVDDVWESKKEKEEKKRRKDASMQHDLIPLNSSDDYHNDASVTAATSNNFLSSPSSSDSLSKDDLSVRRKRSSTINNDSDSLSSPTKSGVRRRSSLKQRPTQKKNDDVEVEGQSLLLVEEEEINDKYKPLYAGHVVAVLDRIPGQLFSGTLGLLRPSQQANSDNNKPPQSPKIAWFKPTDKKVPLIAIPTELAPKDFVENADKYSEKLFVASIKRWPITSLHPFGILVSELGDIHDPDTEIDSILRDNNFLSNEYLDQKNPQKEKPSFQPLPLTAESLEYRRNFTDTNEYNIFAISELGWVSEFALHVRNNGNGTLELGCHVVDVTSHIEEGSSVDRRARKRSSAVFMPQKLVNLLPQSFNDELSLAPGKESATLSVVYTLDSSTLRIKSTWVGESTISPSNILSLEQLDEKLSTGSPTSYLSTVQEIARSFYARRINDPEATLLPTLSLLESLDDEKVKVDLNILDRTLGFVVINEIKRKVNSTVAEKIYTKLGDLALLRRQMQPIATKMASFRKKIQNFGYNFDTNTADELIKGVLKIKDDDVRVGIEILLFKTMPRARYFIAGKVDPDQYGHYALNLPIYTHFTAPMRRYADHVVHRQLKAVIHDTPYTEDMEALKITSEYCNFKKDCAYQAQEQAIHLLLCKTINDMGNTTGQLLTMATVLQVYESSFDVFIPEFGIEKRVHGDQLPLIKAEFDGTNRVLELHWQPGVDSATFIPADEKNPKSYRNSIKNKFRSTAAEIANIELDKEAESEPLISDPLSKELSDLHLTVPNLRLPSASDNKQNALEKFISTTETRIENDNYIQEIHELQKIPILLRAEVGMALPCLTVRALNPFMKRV
Briefly: fluorescence anisotropy; Anisotropy: 20 nM RNA, 20 mM HEPES pH 7.5, 150 mM NaCl, 1 mM DTT, 0.01% Tween 20, 15 and 30 min on ice; EMSA: 0.5 uM RNA, 20 mM HEPES pH 7.5, 150 mM K acetate. Particulars: protein: recombinant, tags: His tag cleaved with 3C protease.

Data set [2] has as its target T1, Ssd1 ΔN338. The description is as above. Particulars: protein: recombinant; tags: His tag cleaved with 3C protease; label: 5'-Cy3.
The target in data set [3] is T1, Ssd1 ΔN338. Kind of data set: EMSA; 5 mM Mg acetate; no significant binding; Anisotropy: 20 nM RNA, 20 mM HEPES pH 7.5, 150 mM NaCl, 1 mM DTT, 0.01% Tween 20, 15 and 30 min on ice; EMSA: 0.5 uM RNA, 20 mM HEPES pH 7.5, 150 mM K acetate. To be noted: protein: recombinant; tags: His tag cleaved with 3C protease; label: 5'-DY681. In general terms: A gel shift assay detects complexes by their altered migration in electrophoresis.

In the case of CAACUAAUUUUCACUCCUUUAA (ssRNA) [DUO-21mer], in data set [1] (label: 5'-Cy3), the Kd stood at 36 nM. As to CUUCCGGCUAAUUUUCACUCCUUUAA (ssRNA) [SUN4-DUO_Mut1], the binding signal in data set [2] was ~2 fold reduction in affinity vs DUO-25mer. For AGAACUCUUCCAACUA (ssRNA) [CCACCU-16mer (CCAACU motif)], in data set [3], the binding result is on record as “no binding”. With AUUUUCACUCCUUUAA (ssRNA) [SEE-15mer], the equilibrium dissociation constant (Kd) in data set [1] (label: 5'-DY681 (EMSA), 5'-Cy3 (anisotropy)) is 166 nM. Consider CUUCCAACUAAUUUUCACUCCUUUAA (ssRNA) [DUO-25mer], for which the Kd in data set [1] (label: 5'-Cy3 (anisotropy)) was found to be 8 nM. Regarding CUUCCAACUAAUUUUUAUCCCUCUAA (ssRNA) [SUN4-DUO_Mut2], the Kd in data set [1] (label: 5'-Cy3) was 104 nM.

For the molecule CUUCCGGCUAAUUUUUAUCCCUCUAA (ssRNA) [SUN4-DUO_Mut3], the binding signal in data set [2] is ~10 fold further loss of affinity (vs Mut2).

For UAAUUUUCACUCCUUUAA (ssRNA) [DUO-17mer], in data set [1] (label: 5'-Cy3), the dissociation constant Kd was 124 nM. Same read-out and setting: the same measure for ACUAAUUUUCACUCCUUUAA (ssRNA) [DUO-19mer]: 42 nM.
